Changes are numbered by the printed parent chain.
B1: humanized anti-GPRC5D antibody h7B4_H3/L2 (antibody, human IgG1, kappa)
heavy: not shown
light: DIQMTQSPSSLSLSPGERATLSCKASQNINKYLDWYQQKPGQPPRLLIYNTNNLHTGIPDRFSGSGSGTDYTLTISRLEPEDFAVYYCLQRNSWYTFGQGTKVEIKRTVAAPSVFIFPPSDEQLKSGTASVVCLLNNFYPREAKVQWKVDNALQSGNSQESVTEQDSKDSTYSLSSTLTLSKADYEKHKVYACEVTHQGLSSPVTKSFNRGEC
notes: Human IgG1 / kappa
B2: humanized anti-GPRC5D antibody h7B4_H3/L1 (antibody, human IgG1, kappa)
heavy: not shown
light: B1 light with D1E, Q3V, M4L, S9G, S10T
notes: Human IgG1 / kappa
B3: humanized anti-GPRC5D antibody h7B4_H2/L2 (antibody, human IgG1, kappa, V domains shown)
VH: EIQLQESGPGLVKPSQTLSLTCTVSGYTITSGYDWSWIRQPPGKGLEWIGYMSYRGSTNYNPSLKSRVTISRDTSKNQFSLKLSSVTAADTAVYYCALTRTYWYNYYYVLDAWGQGTLVTVSS
VL: DIQMTQSPSSLSLSPGERATLSCKASQNINKYLDWYQQKPGQPPRLLIYNTNNLHTGIPDRFSGSGSGTDYTLTISRLEPEDFAVYYCLQRNSWYTFGQGTKVEIKR
notes: Human IgG1 / kappa
B4: humanized anti-GPRC5D antibody h7B4_H5/L1 (antibody, human IgG1, kappa, V domains shown)
VH: B3 VH with Q40K, K44N, G45K, L46M, G50A
VL: B3 VL with D1E, Q3V, M4L, S9G, S10T
notes: Human IgG1 / kappa
B5: humanized anti-GPRC5D antibody h7B4_H1/L2 (antibody, human IgG1, kappa)
heavy: not shown
light: B1 light
notes: Human IgG1 / kappa
B6: anti-GPRC5D-anti-CD3 bispecific molecule C3022-C3E7036 (bispecific antibody)
scFv: GQVQLVQSGAEVKKPGASVKVSCKASGYTFTGYYMHWVRQAPGQGLEWMGRINPNSGGTNYAQKFQGRVTMTRDTSISTAYMELSGLRSDDTAVYYCASGSVRHPWGQGTLVTVSSGGGGSGGGGSGGGGSQPVLTQPPSASGTPGQRVTISCSGSRSNIGGNIVSWYQQFPGTAPRLLTYADNQRPSGVPDRFSGSKSGTSASLAISGLQSEDEADYYCAAWDDSLNGVVFGGGTKLTVLGGGGSEVQLVESGGGLVQPGGSLRLSCAASGVTFNYYGMSWIRQAPGKGLEWVASITNSGGRIYYPDSVKGRFTISRENTQKTLYLQMNSLRAEDTAVYYCTLDGRDGWVAYWGQGTLVTVSSGGGGSGGGGSGGGGSNFMLTQPSSVSGVPGQRVTISCTGNTGNIGSNYVNWYQQLPGTAPKLLIYRDDKRPSGVPDRFSGSKSGTSASLAITGFQAEDEADYYCQSYSSGFIFGGGTKLTVLGAAAGAGGDYKDDDDKGAAAHHHHHH
notes: Tandem scFv
B7: anti-GPRC5D-anti-CD3 bispecific molecule C3048-C3E7036 (bispecific antibody)
scFv: GQVQLVQSGAEVKKPGSSVKVSCKASGGTFSRYAISWVRQAPGQGLEWMGGIIPIFGTANYAQKFQGRVTITADQSTRTAYMDLGRLRSEDTAVYYCALEGFRDSLKRNPFDIWGQGTMVTVSSGGGGSGGGGSGGGGSQSVVTQPPSVSAAPGQKVTISCSGGTTNIGSNYVSWYQQLPGTAPKFLMYENNKRPSGIPDRFSGSKSGTSATLAITGLQTGDEATYYCSTWDSSLNTGLFGGGTKLTVLGGGGSEVQLVESGGGLVQPGGSLRLSCAASGVTFNYYGMSWIRQAPGKGLEWVASITNSGGRIYYPDSVKGRFTISRENTQKTLYLQMNSLRAEDTAVYYCTLDGRDGWVAYWGQGTLVTVSSGGGGSGGGGSGGGGSNFMLTQPSSVSGVPGQRVTISCTGNTGNIGSNYVNWYQQLPGTAPKLLIYRDDKRPSGVPDRFSGSKSGTSASLAITGFQAEDEADYYCQSYSSGFIFGGGTKLTVLGAAAGAGGDYKDDDDKGAAAHHHHHH
notes: Tandem scFv

Target: T1, human GPRC5D (human, UniProt Q9NZD1 1-345)
T1 construct: whole, on cells; also called hGPRC5D; G-protein coupled receptor family C group 5 member D
Experiment: flow cytometry on KHM-1B cells (human GPRC5D), culture supernatant, PE anti-human IgG Fc, rMFI over human IgG isotype control
Experimental: Human multiple myeloma cell line KHM-1B cells expressing GPRC5D were adjusted to a concentration of 2×10⁶ cells/mL with PBS containing 5% FBS, inoculated in an amount of 100 μL/well to a 96-well U-bottomed microplate, and centrifuged to remove a supernatant. The culture supernatant of each humanized anti-GPRC5D antibody obtained in Example 8)-3-1 or Human IgG isotype control antibody (Calbiochem/Merck Millipore Corp.) adjusted to 14 ng/mL to 30 μg/mL was added thereto in an amount of 100 μL/well, and the plate was left standing at 4° C. for 1 hour. The cells were washed twice with PBS containing 5% FBS. Then, R-Phycoerythrin AffiniPure F(ab′)2 Fragment Goat Anti-Human IgG, Fcγ Fragment Specific (Jackson ImmunoResearch Laboratories, Inc.) diluted 100-fold with PBS containing 5% FBS was added thereto in an amount of 100 μL/well, and the plate was left standing at 4° C. for 1 hour. The cells were washed twice with PBS containing 5% FBS and then resuspended in PBS containing 5% FBS, followed by detection using a flow cytometer (FACSCanto™ II; Becton, Dickinson and Company). The data was analyzed using Flowjo (Tree Star, Inc.). The PE fluorescence intensity of the cell fraction was plotted to a histogram, and the mean fluorescence intensity (MFI) was calculated. The MFI value of the control antibody was subtracted from the MFI value of the GPRC5D antibody to calculate a relative value of MFI (rMFI).

T1 sequence (Q9NZD1 whole entry): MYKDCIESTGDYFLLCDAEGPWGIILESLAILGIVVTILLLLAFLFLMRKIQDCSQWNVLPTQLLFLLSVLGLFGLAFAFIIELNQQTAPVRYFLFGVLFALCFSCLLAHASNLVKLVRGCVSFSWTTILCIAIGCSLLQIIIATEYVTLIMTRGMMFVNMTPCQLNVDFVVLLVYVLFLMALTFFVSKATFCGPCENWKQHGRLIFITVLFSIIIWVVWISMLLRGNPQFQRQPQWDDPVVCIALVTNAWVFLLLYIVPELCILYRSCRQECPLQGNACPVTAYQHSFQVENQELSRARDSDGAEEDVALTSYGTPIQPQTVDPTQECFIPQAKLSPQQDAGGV

binding result	Binder
binds	B1
binds	B2
binds	B3
binds	B4
binds	B5

Target: T1, human GPRC5D
Experiment: flow cytometry on A4/Fuk cells (endogenous human GPRC5D), Penta-His Alexa Fluor 488 detection, rMFI = MFI minus sample without antibody
Experimental: Lymphoma cell line A4/Fuk cells (JCRB Cell Bank) were adjusted to an appropriate concentration with PBS containing 5% FBS. LIVE/DEAD Fixable Near-IR Dead Cell Stain Kit was added to the cells, which were then left standing at 4° C. for 30 minutes. The cells were washed twice with PBS containing 5% FBS, then adjusted to a concentration of 1×10⁶ cells/mL with PBS containing 5% FBS, inoculated in an amount of 100 μL/well to a 96-well U-bottomed microplate, and centrifuged to remove a supernatant. Each anti-GPRC5D-anti-CD3 bispecific molecule (C2037-C3E7034 to C3022-C3E7036 prepared in Example 12) diluted with PBS containing 5% FBS were added thereto in an amount of 100 μL/well, and the plate was left standing at 4° C. for 60 minutes. The cells were washed twice with PBS containing 5% FBS. Then, Penta-His Alexa Fluor 488 diluted with PBS containing 5% FBS was added thereto in an amount of 30 μL/well, and the plate was left standing at 4° C. for 30 minutes. The cells were washed twice with PBS containing 5% FBS and then resuspended in PBS containing 5% FBS, followed by detection using a flow cytometer (FACSCanto™ II). The data was analyzed using Flowjo. The mean fluorescence intensity (MFI) of Alexa Fluor 488 in a fraction free from dead cells was calculated. The MFI value of the antibody-unsupplemented sample was subtracted from the MFI value of the antibody-supplemented sample to calculate a relative value of MFI (rMFI).

binding result	Binder
binds	B6
binds	B7

Target: T2, cynomolgus monkey GPRC5D (cynomolgus monkey)
T2 construct: whole, on cells; Stably expressed on KMS-11 cells (KMS-11_cGPRC5D); also called cGPRC5D
Experiment: flow cytometry on KMS-11_cGPRC5D cells (cynomolgus monkey GPRC5D), PE anti-human IgG Fc detection, rMFI = MFI minus isotype control

EC50 (read off the curve)	Binder
~2 nM	B1
~2 nM	B2
~2 nM	B3
~2 nM	B4
~3 nM	B5

From patent publication US20190367612A1 (Daiichi Sankyo, published 2019)
